B1: library; a variant is named by its letters at N, in order (parent)
chain: GCUGUCACCGGUGUAUUACCCUAGUGGUCGACCGGUCUGAUGAGUCUNNNNNNAGACGAAACAGC

Data set [1] covers variants of B1. The data set can be described thus: normalized RNA/DNA level with ligand (relative to sTRSVctl = 100) (log10 (% of sTRSVctl)); ligand: hypoxanthine (xanthine aptamer); higher = less ribozyme self-cleavage, higher mRNA level. The following applies: ligand concentration (+) RNA-Seq: 5 mM, HEK293T, reporter: mCherry (pCS4076), ligand present: yes. The essentials: (§1)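 Ribozyme switch library plasmids with mCherry reporters (eGFP in certain ligand experiments) went into HEK293T cells at 4 µg per 6-well well. Where ligand was used, it was applied 1 h before transfection, and total RNA was extracted with EDTA 72 h later for reverse transcription, amplification, barcoding and sequencing. RNA level is the RNA-to-DNA read ratio normalized to a spiked-in non-cleaving sequence or to the leading sequences, then scaled and log-transformed. Scaling was ×100 with log10, the leading set comprised 25 sequences, and the cutoff was ≥100 DNA reads.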

Data set [2] covers variants of B1. The data set can be described thus: normalized RNA/DNA level without ligand (relative to sTRSVctl = 100) (log10 (% of sTRSVctl)); ligand: hypoxanthine (xanthine aptamer); higher = less ribozyme self-cleavage, higher mRNA level. The following applies: HEK293T, reporter: mCherry (pCS4076), ligand present: no. The essentials:
as §1

The source of these data is the supplement of paper PMC6757056.

± gives the standard deviation of the averaged measurements.

As for GCUGUCACCGGUGUAUUACCCUAGUGGUCGACCGGUCUGAUGAGUCUUUCGAGAGACGAAACAGC [UUCGAG], the “normalized RNA/DNA level with ligand (log10)” value in data set [1] stood at 1.88 ± 0.038. Moreover, the “normalized RNA/DNA level without ligand (log10)” value in data set [2] turned out to be 1.544 ± 0.0067.
Turning to GCUGUCACCGGUGUAUUACCCUAGUGGUCGACCGGUCUGAUGAGUCUUUCGACAGACGAAACAGC [UUCGAC], in data set [1], the “normalized RNA/DNA level with ligand (log10)” value stood at 1.9 ± 0.074. In addition, in data set [2], the “normalized RNA/DNA level without ligand (log10)” value was 1.781 ± 0.0058.
In the case of GCUGUCACCGGUGUAUUACCCUAGUGGUCGACCGGUCUGAUGAGUCUUUCCGGAGACGAAACAGC [UUCCGG], the “normalized RNA/DNA level with ligand (log10)” value in data set [1] worked out at 1.98 ± 0.024. Besides, the “normalized RNA/DNA level without ligand (log10)” value in data set [2] turned out to be 1.903 ± 0.011.
The matching figures for GCUGUCACCGGUGUAUUACCCUAGUGGUCGACCGGUCUGAUGAGUCUUUCCGUAGACGAAACAGC [UUCCGU]: 2 ± 0.039 and 1.85 ± 0.025.
Taken in the same sequence, the figures for GCUGUCACCGGUGUAUUACCCUAGUGGUCGACCGGUCUGAUGAGUCUCUCCGUAGACGAAACAGC [CUCCGU] were 1.95 ± 0.051 and 1.88 ± 0.019.
The matching figures for GCUGUCACCGGUGUAUUACCCUAGUGGUCGACCGGUCUGAUGAGUCUCUCCGGAGACGAAACAGC [CUCCGG]: 1.93 ± 0.029 and 1.95 ± 0.065.
On to GCUGUCACCGGUGUAUUACCCUAGUGGUCGACCGGUCUGAUGAGUCUAUCGAAAGACGAAACAGC [AUCGAA], for which, in data set [1], the “normalized RNA/DNA level with ligand (log10)” value was 1.863 ± 0.01. Also, the “normalized RNA/DNA level without ligand (log10)” value in data set [2] is 1.73 ± 0.04.
Taken in the same sequence, the figures for GCUGUCACCGGUGUAUUACCCUAGUGGUCGACCGGUCUGAUGAGUCUCUCCUGAGACGAAACAGC [CUCCUG] were 1.94 ± 0.021 and 1.953 ± 0.0068.
The matching figures for GCUGUCACCGGUGUAUUACCCUAGUGGUCGACCGGUCUGAUGAGUCUCUCCUUAGACGAAACAGC [CUCCUU]: 1.99 ± 0.087 and 1.89 ± 0.056.
For the variant GCUGUCACCGGUGUAUUACCCUAGUGGUCGACCGGUCUGAUGAGUCUCUCCUAAGACGAAACAGC [CUCCUA], the “normalized RNA/DNA level with ligand (log10)” value in data set [1] turned out to be 1.96 ± 0.075. Besides, in data set [2], the “normalized RNA/DNA level without ligand (log10)” value came out at 1.87 ± 0.055.
With GCUGUCACCGGUGUAUUACCCUAGUGGUCGACCGGUCUGAUGAGUCUAUCCUAAGACGAAACAGC [AUCCUA], in data set [1], the “normalized RNA/DNA level with ligand (log10)” value was 1.94 ± 0.062. In addition, in data set [2], the “normalized RNA/DNA level without ligand (log10)” value was determined as 1.9 ± 0.043.
On to GCUGUCACCGGUGUAUUACCCUAGUGGUCGACCGGUCUGAUGAGUCUAUCCUUAGACGAAACAGC [AUCCUU], for which the “normalized RNA/DNA level with ligand (log10)” value in data set [1] amounted to 1.98 ± 0.027. In addition, in data set [2], the “normalized RNA/DNA level without ligand (log10)” value came out at 1.91 ± 0.055.
Taken in the same sequence, the figures for GCUGUCACCGGUGUAUUACCCUAGUGGUCGACCGGUCUGAUGAGUCUAUCCGUAGACGAAACAGC [AUCCGU] were 1.96 ± 0.0099 and 1.91 ± 0.018.
Taken in the same sequence, the figures for GCUGUCACCGGUGUAUUACCCUAGUGGUCGACCGGUCUGAUGAGUCUGUCCGUAGACGAAACAGC [GUCCGU] were 1.891 ± 0.0098 and 1.86 ± 0.041.
Taken in the same sequence, the figures for GCUGUCACCGGUGUAUUACCCUAGUGGUCGACCGGUCUGAUGAGUCUCUCGGAAGACGAAACAGC [CUCGGA] were 1.99 ± 0.03 and 1.84 ± 0.057.
Regarding GCUGUCACCGGUGUAUUACCCUAGUGGUCGACCGGUCUGAUGAGUCUGUCCUGAGACGAAACAGC [GUCCUG], in data set [1], the “normalized RNA/DNA level with ligand (log10)” value amounted to 1.88 ± 0.024. Besides, the “normalized RNA/DNA level without ligand (log10)” value in data set [2] amounted to 1.52 ± 0.022.
The matching figures for GCUGUCACCGGUGUAUUACCCUAGUGGUCGACCGGUCUGAUGAGUCUGUCCUCAGACGAAACAGC [GUCCUC]: 1.9 ± 0.016 and 1.93 ± 0.057.
Turning to GCUGUCACCGGUGUAUUACCCUAGUGGUCGACCGGUCUGAUGAGUCUGUCCUAAGACGAAACAGC [GUCCUA], in data set [1], the “normalized RNA/DNA level with ligand (log10)” value worked out at 1.95 ± 0.069. Further, the “normalized RNA/DNA level without ligand (log10)” value in data set [2] was 1.934 ± 0.015.
The matching figures for GCUGUCACCGGUGUAUUACCCUAGUGGUCGACCGGUCUGAUGAGUCUGUCCUUAGACGAAACAGC [GUCCUU]: 1.94 ± 0.11 and 1.95 ± 0.017.
Taken in the same sequence, the figures for GCUGUCACCGGUGUAUUACCCUAGUGGUCGACCGGUCUGAUGAGUCUUUCGGCAGACGAAACAGC [UUCGGC] were 1.95 ± 0.098 and 1.89 ± 0.025.
The matching figures for GCUGUCACCGGUGUAUUACCCUAGUGGUCGACCGGUCUGAUGAGUCUUUCGGAAGACGAAACAGC [UUCGGA]: 1.95 ± 0.034 and 1.75 ± 0.044.
